Laboratory results reported in US20150275192.

Tests used:
[1] = biological target: L1-CAM (CD171) extracellular domain (UniProt P32004); assay: FP; details: 5' DNA primer fd; remainder A = alpha-thio-dA, C = gemcitabine (2',2'-difluoro-dC), G = FANA-G, T = floxuridine (5-fluoro-dU); exact value only in figure
[2] = biological target: T1, CD30 extracellular domain (UniProt P28908); assay: FP; details: 5' DNA primer fd; remainder A = alpha-thio-dA, C = gemcitabine (2',2'-difluoro-dC), G = FANA-G, T = floxuridine (5-fluoro-dU); exact value only in figure
T1 sequence: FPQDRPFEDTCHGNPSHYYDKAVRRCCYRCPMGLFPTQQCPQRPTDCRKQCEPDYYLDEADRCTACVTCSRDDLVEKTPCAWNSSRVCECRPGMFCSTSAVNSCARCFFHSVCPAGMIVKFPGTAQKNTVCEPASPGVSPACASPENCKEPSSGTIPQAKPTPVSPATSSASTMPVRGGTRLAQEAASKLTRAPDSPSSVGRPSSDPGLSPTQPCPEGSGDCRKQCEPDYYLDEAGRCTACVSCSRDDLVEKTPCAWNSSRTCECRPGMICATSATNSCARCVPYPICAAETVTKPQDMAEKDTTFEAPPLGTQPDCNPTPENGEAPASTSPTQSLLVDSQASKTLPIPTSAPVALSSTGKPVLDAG

Chain of L1-CAM (CD171) extracellular domain (P32004 20-1120): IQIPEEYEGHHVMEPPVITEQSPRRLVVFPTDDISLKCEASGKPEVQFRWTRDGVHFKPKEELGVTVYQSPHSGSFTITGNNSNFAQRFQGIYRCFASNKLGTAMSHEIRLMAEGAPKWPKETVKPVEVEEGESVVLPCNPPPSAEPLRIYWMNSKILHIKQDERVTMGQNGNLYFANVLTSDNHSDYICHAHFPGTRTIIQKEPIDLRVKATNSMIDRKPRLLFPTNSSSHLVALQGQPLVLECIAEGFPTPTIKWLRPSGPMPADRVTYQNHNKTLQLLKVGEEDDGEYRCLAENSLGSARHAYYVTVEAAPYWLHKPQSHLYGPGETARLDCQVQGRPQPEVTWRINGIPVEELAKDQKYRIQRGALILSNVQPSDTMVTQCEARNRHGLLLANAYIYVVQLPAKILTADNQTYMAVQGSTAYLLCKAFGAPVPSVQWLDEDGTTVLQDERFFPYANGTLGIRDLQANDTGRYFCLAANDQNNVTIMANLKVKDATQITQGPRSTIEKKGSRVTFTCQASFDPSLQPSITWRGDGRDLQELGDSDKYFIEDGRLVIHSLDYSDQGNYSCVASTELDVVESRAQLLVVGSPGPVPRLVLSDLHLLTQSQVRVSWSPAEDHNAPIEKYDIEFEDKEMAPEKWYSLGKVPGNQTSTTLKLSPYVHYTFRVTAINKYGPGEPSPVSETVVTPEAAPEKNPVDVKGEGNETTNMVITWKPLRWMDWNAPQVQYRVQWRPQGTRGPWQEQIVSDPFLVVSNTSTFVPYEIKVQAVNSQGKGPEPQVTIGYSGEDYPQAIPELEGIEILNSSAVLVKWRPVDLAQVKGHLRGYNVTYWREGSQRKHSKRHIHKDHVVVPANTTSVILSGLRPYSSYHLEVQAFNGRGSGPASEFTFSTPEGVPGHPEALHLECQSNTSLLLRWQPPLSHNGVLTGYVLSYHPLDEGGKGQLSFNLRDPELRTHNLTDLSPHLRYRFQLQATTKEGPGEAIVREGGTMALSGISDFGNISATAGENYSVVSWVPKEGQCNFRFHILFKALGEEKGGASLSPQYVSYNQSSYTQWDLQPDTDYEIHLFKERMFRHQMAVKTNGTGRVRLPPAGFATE

Row | Sequence | Kd [1] [nM] | Kd [2] [nM]
1 | CCCCTTATTAGCGTTTGCCAACGACGCGACGCCGTTCAACCAGATATTGAAGCAGAACGCAAAAAGA [L1-CAM_Icore] | < 100 | 
2 | CCCCTTATTAGCGTTTGCCAGCGACGCCGTTCAACCAGATATTGAAGCAGAACGCAAAAAGAGAGATGAGATTGAGGCT [L1CAM_I1] | < 100 | 
3 | CCCCTTATTAGCGTTTGCCATAGATGTGGTAGAAGTCGTCATTTGGCGAGAAAGCTCAGTCTCAGG [CD30_I3] |  | > 100
4 | CCCCTTATTAGCGTTTGCCATAGATGTGGTAGAAGTCGTCATTTGGCGAGAAAGCTCAGTCTCAGG [L1-CAM_I6] | < 100 | 
5 | CCCCTTATTAGCGTTTGCCATTTCATGGTATTGATAAAGCTGTTGCCGATACTTGGAACAATTTCT [CD30_I30] |  | < 100
